From US20100150879A1 (published 2010)
One block for each binder: values may come before it. No end group written: not given here.

What was measured:
[1] = target: T1, VE-cadherin, endogenous in hdMVEC (human, UniProt P33151 48-784); assay: far western, GST-LPP3-C-cyto as bait on blotted immunoprecipitates from hdMVEC
T1 construct: Endogenous protein from confluent EC extracts
T1 sequence (looked up): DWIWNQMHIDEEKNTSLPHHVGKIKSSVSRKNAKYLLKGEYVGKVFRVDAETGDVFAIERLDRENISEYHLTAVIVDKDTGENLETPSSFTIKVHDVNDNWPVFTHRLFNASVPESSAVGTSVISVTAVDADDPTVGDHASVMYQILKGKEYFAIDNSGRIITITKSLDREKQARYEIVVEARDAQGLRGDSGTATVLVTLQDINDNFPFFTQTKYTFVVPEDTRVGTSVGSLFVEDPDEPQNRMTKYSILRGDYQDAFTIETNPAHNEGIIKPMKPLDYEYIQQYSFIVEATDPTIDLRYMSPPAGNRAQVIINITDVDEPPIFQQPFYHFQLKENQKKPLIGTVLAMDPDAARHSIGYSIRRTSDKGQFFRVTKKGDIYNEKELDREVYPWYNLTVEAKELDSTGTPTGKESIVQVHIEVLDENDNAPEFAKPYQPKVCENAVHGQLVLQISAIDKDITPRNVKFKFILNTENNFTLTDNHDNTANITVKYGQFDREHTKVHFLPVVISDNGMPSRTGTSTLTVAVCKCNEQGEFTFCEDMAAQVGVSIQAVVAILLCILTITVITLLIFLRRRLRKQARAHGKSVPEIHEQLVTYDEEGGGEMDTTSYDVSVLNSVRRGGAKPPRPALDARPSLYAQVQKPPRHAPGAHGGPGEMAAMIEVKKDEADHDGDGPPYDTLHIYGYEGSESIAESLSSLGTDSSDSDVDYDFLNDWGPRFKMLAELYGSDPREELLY

β-catenin, endogenous [2] = target: T2, β-catenin, endogenous (human, UniProt P35222 2-781); assay: as above
T2 construct: Endogenous protein from cell extracts; also called beta-catenin
T2 sequence (looked up): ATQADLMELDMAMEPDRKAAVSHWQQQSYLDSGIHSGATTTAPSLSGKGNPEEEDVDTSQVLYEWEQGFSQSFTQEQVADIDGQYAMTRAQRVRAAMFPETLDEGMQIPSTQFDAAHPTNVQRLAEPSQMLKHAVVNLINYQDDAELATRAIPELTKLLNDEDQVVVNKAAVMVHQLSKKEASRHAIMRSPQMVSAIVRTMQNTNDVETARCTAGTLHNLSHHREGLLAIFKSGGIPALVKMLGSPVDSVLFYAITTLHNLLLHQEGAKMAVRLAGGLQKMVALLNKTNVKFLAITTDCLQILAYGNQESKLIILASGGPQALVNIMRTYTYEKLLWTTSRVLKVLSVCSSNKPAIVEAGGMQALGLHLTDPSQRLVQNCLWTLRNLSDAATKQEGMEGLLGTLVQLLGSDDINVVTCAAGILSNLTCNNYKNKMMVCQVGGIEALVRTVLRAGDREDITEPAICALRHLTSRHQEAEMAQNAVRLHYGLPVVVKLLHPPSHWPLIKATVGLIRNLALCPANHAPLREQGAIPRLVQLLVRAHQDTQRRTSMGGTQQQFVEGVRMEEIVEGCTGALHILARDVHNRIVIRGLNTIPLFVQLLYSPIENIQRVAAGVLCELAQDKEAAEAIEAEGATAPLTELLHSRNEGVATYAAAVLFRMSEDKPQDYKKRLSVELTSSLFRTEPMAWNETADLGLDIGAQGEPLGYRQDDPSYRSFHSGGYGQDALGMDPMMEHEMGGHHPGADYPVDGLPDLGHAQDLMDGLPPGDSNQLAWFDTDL

[3] = target: T3, γ-catenin (plakoglobin), endogenous (human, UniProt P14923 1-745); assay: as above
T3 construct: Endogenous protein from cell extracts; also called gamma-catenin
T3 sequence (looked up): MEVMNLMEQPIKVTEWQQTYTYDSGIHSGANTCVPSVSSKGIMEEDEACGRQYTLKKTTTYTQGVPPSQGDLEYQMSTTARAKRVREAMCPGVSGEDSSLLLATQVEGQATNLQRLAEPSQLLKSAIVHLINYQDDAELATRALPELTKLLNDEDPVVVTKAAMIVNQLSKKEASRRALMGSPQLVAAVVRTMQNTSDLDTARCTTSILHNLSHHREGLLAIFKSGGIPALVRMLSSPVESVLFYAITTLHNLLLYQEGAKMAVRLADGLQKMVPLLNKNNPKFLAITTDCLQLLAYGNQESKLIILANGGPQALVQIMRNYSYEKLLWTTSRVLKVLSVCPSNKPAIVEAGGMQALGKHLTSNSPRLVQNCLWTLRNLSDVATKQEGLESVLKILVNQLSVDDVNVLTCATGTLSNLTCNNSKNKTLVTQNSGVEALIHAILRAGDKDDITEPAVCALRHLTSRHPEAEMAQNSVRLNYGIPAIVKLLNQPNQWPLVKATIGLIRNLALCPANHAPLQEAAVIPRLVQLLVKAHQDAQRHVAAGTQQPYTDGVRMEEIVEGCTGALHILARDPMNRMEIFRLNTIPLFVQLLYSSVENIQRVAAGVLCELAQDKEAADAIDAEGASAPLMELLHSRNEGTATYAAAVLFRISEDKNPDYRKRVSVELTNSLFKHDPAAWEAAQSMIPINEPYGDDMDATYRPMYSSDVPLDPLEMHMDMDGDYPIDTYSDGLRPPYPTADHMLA

[4] = target: T4, β1-integrin, endogenous in hdMVEC (human, UniProt P05556 21-798); assay: as above
T4 construct: Immunoprecipitated from hdMVEC extracts and blotted for far western analysis; also called beta1-integrin
T4 sequence (P05556 21-798): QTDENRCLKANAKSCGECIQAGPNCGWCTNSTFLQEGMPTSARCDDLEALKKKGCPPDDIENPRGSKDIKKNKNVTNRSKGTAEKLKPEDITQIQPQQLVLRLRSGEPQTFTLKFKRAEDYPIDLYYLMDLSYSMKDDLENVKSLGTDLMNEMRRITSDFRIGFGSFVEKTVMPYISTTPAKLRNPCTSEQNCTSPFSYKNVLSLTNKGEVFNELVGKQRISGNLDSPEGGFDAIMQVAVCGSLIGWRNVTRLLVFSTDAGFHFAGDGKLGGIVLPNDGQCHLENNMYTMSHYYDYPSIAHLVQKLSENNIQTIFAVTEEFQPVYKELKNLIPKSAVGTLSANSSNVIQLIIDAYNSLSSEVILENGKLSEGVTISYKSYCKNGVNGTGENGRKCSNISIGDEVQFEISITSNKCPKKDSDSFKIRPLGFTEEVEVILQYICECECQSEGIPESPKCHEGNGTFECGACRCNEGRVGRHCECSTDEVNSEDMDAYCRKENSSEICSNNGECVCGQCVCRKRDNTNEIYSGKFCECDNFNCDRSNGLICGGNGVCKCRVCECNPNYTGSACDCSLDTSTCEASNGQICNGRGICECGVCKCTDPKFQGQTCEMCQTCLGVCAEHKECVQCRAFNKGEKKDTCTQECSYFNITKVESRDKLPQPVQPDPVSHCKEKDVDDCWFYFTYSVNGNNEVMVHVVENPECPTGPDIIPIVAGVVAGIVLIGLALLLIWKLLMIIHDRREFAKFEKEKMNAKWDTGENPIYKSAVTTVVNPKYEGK

β-catenin, endogenous [5] = target: T2, β-catenin, endogenous; assay: interaction assay in extracts of ECs transfected with LPP3 constructs (method not spelled out)
β-catenin, endogenous [6] = target: T2, β-catenin, endogenous; assay: immunoprecipitation and western blot, HEK293 cells expressing HA-LPP3
Protocol: (§1) For immunoprecipitation experiments, cells were rinsed with cold phosphate buffered saline (PBS), pH 7.4 and solubilized with complete cell lysis buffer (50 mM HEPES, pH 7.5; 150 mM NaCl; 1% TRITON X-100; 1 mM calcium chloride; 1 mM magnesium chloride; 1 mM sodium orthovanadate; 25 mM sodium fluoride; 1 mM sodium pyrosphosphate; 1 mM phenylmethylsulfonyl fluoride (PMSF); 10 μg/ml aprotinin; 10 μg/ml leupeptin; 1 μg/ml pepstatin-A) or with modified RIPA buffer (20 mM Tris, pH 7.5; 0.1% SDS; 0.25% sodium deoxycholate; 1% TRITON X-100; 150 mM sodium chloride; 1 mM sodium pyrosphosphate; 25 mM sodium fluoride; 1 mM sodium orthovanadate; 5 mM magnesium chloride; 1 mM calcium chloride; 1 μg/ml pepstatin; 1 mM phenylmethylsulfonyl fluoride; 1 μg/ml leupeptin) at 4° C. for 30 minutes. Cell extracts were centrifuged at ˜21,000×g for 30 minutes at 4° C., pre-adsorbed, and immunoprecipitated using specific antibodies. Immune complexes were washed 4-5 times with lysis buffer or with cold immunoprecipitation wash buffer (50 mM HEPES, pH 7.5; 150 mM NaCl; 0.5% NP-40; 1 mM calcium chloride; 1 mM magnesium chloride). SEPHAROSE-bound immune complexes were boiled in 1× Lammeli reducing sample buffer and resolved by SDS-PAGE.

[7] = target: T3, γ-catenin (plakoglobin), endogenous; assay: as above
Protocol: as §1

[8] = target: T5, p120-catenin (p120ctn), endogenous (human, UniProt O60716 1-968, limits assumed); assay: GST pull-down
T5 construct: Endogenous protein from cell extracts of human cells (hdMVEC, HEK293)
T5 sequence (looked up): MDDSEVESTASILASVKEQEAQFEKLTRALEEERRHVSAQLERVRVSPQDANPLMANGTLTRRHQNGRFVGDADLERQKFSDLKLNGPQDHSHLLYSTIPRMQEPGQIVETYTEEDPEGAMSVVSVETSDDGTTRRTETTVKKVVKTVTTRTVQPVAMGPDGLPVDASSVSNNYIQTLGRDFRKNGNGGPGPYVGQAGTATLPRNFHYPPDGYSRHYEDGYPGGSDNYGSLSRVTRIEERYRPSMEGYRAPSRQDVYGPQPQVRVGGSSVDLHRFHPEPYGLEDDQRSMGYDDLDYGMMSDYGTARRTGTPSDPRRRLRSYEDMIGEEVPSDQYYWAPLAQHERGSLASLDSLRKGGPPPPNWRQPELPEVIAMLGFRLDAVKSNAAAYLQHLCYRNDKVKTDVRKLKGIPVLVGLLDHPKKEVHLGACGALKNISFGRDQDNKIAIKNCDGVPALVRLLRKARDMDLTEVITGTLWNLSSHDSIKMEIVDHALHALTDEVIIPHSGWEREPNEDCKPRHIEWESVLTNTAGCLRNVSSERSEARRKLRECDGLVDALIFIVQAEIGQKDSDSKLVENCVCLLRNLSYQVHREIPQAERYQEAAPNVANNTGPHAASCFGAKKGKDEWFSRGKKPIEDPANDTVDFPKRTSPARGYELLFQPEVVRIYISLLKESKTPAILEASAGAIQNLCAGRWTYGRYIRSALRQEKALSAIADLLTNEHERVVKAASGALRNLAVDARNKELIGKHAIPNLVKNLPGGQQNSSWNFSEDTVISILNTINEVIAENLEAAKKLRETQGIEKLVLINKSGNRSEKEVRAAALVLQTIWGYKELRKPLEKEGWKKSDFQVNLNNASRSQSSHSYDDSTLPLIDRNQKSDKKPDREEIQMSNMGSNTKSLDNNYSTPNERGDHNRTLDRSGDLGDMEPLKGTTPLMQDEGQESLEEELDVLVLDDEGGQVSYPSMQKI
Protocol: Pull-down assays were also carried out with GST-LPP3 fusion proteins. […] In these experiments, each of the membranes was probed for the presence of the GST-fusion protein.

[9] = target: T1, VE-cadherin, endogenous in hdMVEC; assay: co-immunoprecipitation from confluent EC extracts
Protocol: Biochemical Experiments. For immunoprecipitation experiments, cells were rinsed with cold phosphate buffered saline (PBS), pH 7.4 and solubilized with complete cell lysis buffer (50 mM HEPES, pH 7.5; 150 mM NaCl; 1% TRITON X-100; 1 mM calcium chloride; 1 mM magnesium chloride; 1 mM sodium orthovanadate; 25 mM sodium fluoride; 1 mM sodium pyrosphosphate; 1 mM phenylmethylsulfonyl fluoride (PMSF); 10 μg/ml aprotinin; 10 μg/ml leupeptin; 1 μg/ml pepstatin-A) or with modified RIPA buffer (20 mM Tris, pH 7.5; 0.1% SDS; 0.25% sodium deoxycholate; 1% TRITON X-100; 150 mM sodium chloride; 1 mM sodium pyrosphosphate; 25 mM sodium fluoride; 1 mM sodium orthovanadate; 5 mM magnesium chloride; 1 mM calcium chloride; 1 μg/ml pepstatin; 1 mM phenylmethylsulfonyl fluoride; 1 μg/ml leupeptin) at 4° C. for 30 minutes. Cell extracts were centrifuged at ˜21,000×g for 30 minutes at 4° C., pre-adsorbed, and immunoprecipitated using specific antibodies. Immune complexes were washed 4-5 times with lysis buffer or with cold immunoprecipitation wash buffer (50 mM HEPES, pH 7.5; 150 mM NaCl; 0.5% NP-40; 1 mM calcium chloride; 1 mM magnesium chloride). SEPHAROSE-bound immune complexes were boiled in 1× Lammeli reducing sample buffer and resolved by SDS-PAGE. […]

β-catenin, endogenous [10] = target: T2, β-catenin, endogenous; assay: co-immunoprecipitation from sub-confluent ECs transfected with FLAG-tagged PTEN
Protocol: Cell extracts were centrifuged at ˜21,000×g for 30 minutes at 4° C., pre-adsorbed, and immunoprecipitated using specific antibodies. Immune complexes were washed 4-5 times with lysis buffer or with cold immunoprecipitation wash buffer (50 mM HEPES, pH 7.5; 150 mM NaCl; 0.5% NP-40; 1 mM calcium chloride; 1 mM magnesium chloride). SEPHAROSE-bound immune complexes were boiled in 1× Lammeli reducing sample buffer and resolved by SDS-PAGE.
It was initially determined whether PTEN binds to β-catenin in sub-confluent ECs.

binding result [1]: no binding (tested: 2.0 µg/ml) | binding result (β-catenin, endogenous [2]): no binding (tested: 2.0 µg/ml) | binding result [3]: no binding (tested: 2.0 µg/ml) | binding result [4]: no binding (tested: 2.0 µg/ml)
B1: GST-LPP3-C-cyto fusion protein (GST fused to the C-terminal cytoplasmic domain of LPP3) (other)
chain: SDLFKTKMTLSLPAPAIRKEILSPVDIIDRNNHHNMM
modifications: also: fused to glutathione-S-transferase (GST), linker not given here
notes: Expressed in E. coli; ran at 32 kDa; also called GST-C-cyto; GST-CC; not shown: glutathione-S-transferase (GST)

binding result (β-catenin, endogenous [5]): binds
B2: Lymphoid Enhancer Binding Factor 1 (LEF-1), endogenous in hdMVEC (other, human, UniProt Q9UJU2 1-399, looked up)
chain: MPQLSGGGGGGGGDPELCATDEMIPFKDEGDPQKEKIFAEISHPEEEGDLADIKSSLVNESEIIPASNGHEVARQAQTSQEPYHDKAREHPDDGKHPDGGLYNKGPSYSSYSGYIMMPNMNNDPYMSNGSLSPPIPRTSNKVPVVQPSHAVHPLTPLITYSDEHFSPGSHPSHIPSDVNSKQGMSRHPPAPDIPTFYPLSPGGVGQITPPLGWQGQPVYPITGGFRQPYPSSLSVDTSMSRFSHHMIPGPPGPHTTGIPHPAIVTPQVKQEHPHTDSDLMHVKPQHEQRKEQEPKRPHIKKPLNAFMLYMKEMRANVVAECTLKESAAINQILGRRWHALSREEQAKYYELARKERQLHMQLYPGWSARDNYGKKKKRKREKLQESASGTGPRMTAAYI
notes: Endogenous protein from EC extracts

binding result (β-catenin, endogenous [6]): no binding | binding result [7]: no binding
B3: HA-tagged human wild-type LPP3 (pLNCX2-HA-WT-hLPP3) (enzyme)
chain: YPYDVPDYAYPYDVPDYAYPYDVPDYAMQNYKYDKAIVPESKNGGSPALNNNPRRSGSKRVLLICLDLFCLFMAGLPFLIIETSTIKPYHRGFYCNDESIKYPLKTGETINDAVLCAVGIVIAILAIITGEFYRIYYLKKSRSTIQNPYVAALYKQVGCFLFGCAISQSFTDIAKVSIGRLRPHFLSVCNPDFSQINCSEGYIQNYRCRGDDSKVQEARKSFFSGHASFSMYTMLYLVLYLQARFTWRGARLLRPLLQFTLIMMAFYTGLSRVSDHKHHPSDVLAGFAQGALVACCIVFFVSDLFKTKTTLSLPAPAIRKEILSPVDIIDRNNHHNMM
notes: whole, on cells; Three copies of the HA tag are fused in-frame at the N-terminus; also called HA-LPP3

binding result [8]: no binding
B4: GST-N-cyto fusion protein (GST fused to the N-terminal cytoplasmic domain of LPP3) (other)
chain: QNYKYDKAIVPESKNGGSPALNNNPRRSGSK
notes: Expressed in E. coli; not shown: glutathione-S-transferase (GST)

binding result [9]: no binding
B5: Lipid Phosphate Phosphatase-3 (LPP3), endogenous in human dermal microvascular endothelial cells (enzyme, UniProt O14495 1-311, looked up)
chain: MQNYKYDKAIVPESKNGGSPALNNNPRRSGSKRVLLICLDLFCLFMAGLPFLIIETSTIKPYHRGFYCNDESIKYPLKTGETINDAVLCAVGIVIAILAIITGEFYRIYYLKKSRSTIQNPYVAALYKQVGCFLFGCAISQSFTDIAKVSIGRLRPHFLSVCNPDFSQINCSEGYIQNYRCRGDDSKVQEARKSFFSGHASFSMYTMLYLVLYLQARFTWRGARLLRPLLQFTLIMMAFYTGLSRVSDHKHHPSDVLAGFAQGALVACCIVFFVSDLFKTKTTLSLPAPAIRKEILSPVDIIDRNNHHNMM
notes: Endogenous protein immunoprecipitated from hdMVEC lysates; also called phosphatidic acid phosphatase-2b; PAP2b

binding result (β-catenin, endogenous [10]): no binding
B6: FLAG-tagged wild-type PTEN (enzyme)
chain: not shown
notes: Gift construct, transfected into sub-confluent ECs; also called WT-PTEN; not shown: FLAG tag
